{
  "source": "paper PMC9929473",
  "about": "“Ensembles of human myosin-19 bound to calmodulin and regulatory light chain RLC12B drive multimicron transport” (The Journal of Biological Chemistry, 2023)",
  "molecules": {"B1": {"name": "RLC12B coexpressed with Myo19-3xIQ-BioTag in Sf9 cells (natural protein, human, UniProt O14950 1-172, looked up)", "chain": "MSSKKAKTKTTKKRPQRATSNVFAMFDQSQIQEFKEAFNMIDQNRDGFIDKEDLHDMLASLGKNPTDAYLDAMMNEAPGPINFTMFLTMFGEKLNGTDPEDVIRNAFACFDEEATGTIQEDYLRELLTTMGDRFTDEEVDELYREAPIDKKGNFNYIEFTRILKHGAKDKDD", "notes": "Myosin regulatory light chain 12B (RLC12B), O14950-1; also called MYL12B; source: Sf9-baculovirus, coexpressed and copurified with Myo19-3xIQ-BioTag"}},
  "key": {"[1]": {"target": "Myo19-3xIQ-BioTag (human myosin-19 motor domain and IQ region with N-terminal FLAG tag and C-terminal biotin tag) (human) (UniProt Q96H55)"}, "[2]": {"target": "Myo19-3xIQ-BioTag (human myosin-19 motor domain and IQ region with N-terminal FLAG tag and C-terminal biotin tag) (human) (UniProt Q96H55)", "remark": "listed apart in the source"}, "[3]": {"target": "Myo19-3xIQ-BioTag (human myosin-19 motor domain and IQ region with N-terminal FLAG tag and C-terminal biotin tag) (human) (UniProt Q96H55)", "remark": "listed apart in the source"}, "[4]": {"target": "Myo19-3xIQ-BioTag (human myosin-19 motor domain and IQ region with N-terminal FLAG tag and C-terminal biotin tag) (human) (UniProt Q96H55)", "assay": "co-sedimentation; as a4 with 1.1 mM CaCl2 added (0.1 mM free Ca2+)"}, "[5]": {"target": "Myo19-3xIQ-BioTag (human myosin-19 motor domain and IQ region with N-terminal FLAG tag and C-terminal biotin tag) (human) (UniProt Q96H55)", "assay": "SEC-MALS; complex fixed with glutaraldehyde during 5 to 30% glycerol gradient centrifugation (GraFix; 20 mM Hepes pH 7.5, 0.2 M NaCl, 5 mM MgCl2, 1 mM EGTA, 4 °C, without calcium), then TSKgel SuperSW2000 with MALS"}, "[6]": {"target": "Myo19-3xIQ-BioTag (human myosin-19 motor domain and IQ region with N-terminal FLAG tag and C-terminal biotin tag) (human) (UniProt Q96H55)", "assay": "co-sedimentation; about 2 μM Myo19-3xIQ-BioTag preparation, 4 μM F-actin, 10 μM CaM in S-Buffer (15 mM Hepes pH 7.5, 7 mM imidazole, 125 mM NaCl, 5 mM MgCl2, 1 mM EGTA, 1 mM DTT), 200,000g 20 min; pellet on SDS-PAGE, gel densitometry with BSA, RLC12B and CaM standards; no calcium"}, "[7]": {"target": "T1, Myo19-3xIQ-BioTag (human myosin-19 motor domain and IQ region with N-terminal FLAG tag and C-terminal biotin … (human, UniProt Q96H55 1-851, biotinylated on the BioTag during expression))", "T1 construct": "also called HC; biotinylated Myo19; not shown: biotin tag (BioTag), C-terminal, kept", "assay": "SEC-MALS; complex fixed with glutaraldehyde during 5 to 30% glycerol gradient centrifugation (GraFix; 20 mM Hepes pH 7.5, 0.2 M NaCl, 5 mM MgCl2, 1 mM EGTA, 4 °C, without calcium), then TSKgel SuperSW2000 with MALS", "details": "both partners purified"}, "[8]": {"target": "T1, Myo19-3xIQ-BioTag (human myosin-19 …)", "assay": "co-sedimentation; about 2 μM Myo19-3xIQ-BioTag preparation, 4 μM F-actin, 10 μM CaM in S-Buffer (15 mM Hepes pH 7.5, 7 mM imidazole, 125 mM NaCl, 5 mM MgCl2, 1 mM EGTA, 1 mM DTT), 200,000g 20 min; pellet on SDS-PAGE, gel densitometry with BSA, RLC12B and CaM standards; no calcium", "details": "both partners purified"}},
  "data": [
    {"molecule": "Calmodulin (CaM) coexpressed with Myo19-3xIQ-BioTag in Sf9 cells and added in excess (from UniProt P0DP23 1-149) (natural protein)", "values": [
      {"measurement": "actin gliding speed of Myo19-3xIQ-BioTag (copurified with RLC12B and CaM) against added CaM, 37 °C, no calcium; EC50 of a hyperbolic fit", "setting": "[1]", "result": 700, "unit": "nM"},
      {"measurement": "actin gliding speed of Myo19 coexpressed with CaM alone against added CaM in the presence of 1 μM RLC12B; EC50 of a hyperbolic fit", "setting": "[2]", "result": 200, "unit": "nM"},
      {"measurement": "actin gliding speed of Myo19 coexpressed with CaM alone against added CaM; EC50 of a hyperbolic fit", "setting": "[2]", "result": 200, "unit": "nM"},
      {"measurement": "actin gliding speed with 0.1 mM free calcium against added CaM (0.1 to 10 μM CaM–Ca2+); highest speed at 4 μM", "setting": "[3]", "result": 210, "unit": "nm/s"},
      {"measurement": "CaM:RLC12B ratio bound to Myo19-3xIQ (CaM per RLC12B)", "setting": "[4]", "result": 2.8},
      {"measurement": "stoichiometry N", "setting": "[5]", "result": 2},
      {"measurement": "CaM to RLC12B ratio bound to Myo19-3xIQ (CaM per RLC12B)", "setting": "[6]", "result": 1.9},
      {"measurement": "stoichiometry N", "setting": "[6]", "result": 3.4}
    ]},
    {"molecule": "RLC12B purified from E. coli (MBP removed by TEV protease) (from UniProt O14950 1-172) (natural protein)", "values": [
      {"measurement": "actin gliding speed of Myo19-3xIQ-BioTag (copurified with RLC12B and CaM) against added RLC12B alone, 37 °C; maximal speed at 1 μM RLC12B", "setting": "[1]", "result": 150, "unit": "nm/s"},
      {"measurement": "actin gliding speed with 4 μM CaM fixed against increasing RLC12B; IC50 of an inhibition fit", "setting": "[1]", "result": 200, "unit": "nM"},
      {"measurement": "actin gliding speed when 1 μM RLC12B was added in solution in the presence of CaM", "setting": "[2]", "result": 250, "unit": "nm/s"}
    ]},
    {"molecule": "B1", "values": [
      {"measurement": "stoichiometry N", "setting": "[7]", "result": 1},
      {"measurement": "stoichiometry N", "setting": "[8]", "result": 1.8}
    ]}
  ]
}
